Data taken from article PMC4027165, “SAXS analysis of the tRNA-modifying enzyme complex MnmE/MnmG reveals a novel interaction mode and GTP-induced oligomerization” (Nucleic Acids Research, 2014).
Numbering of substitutions follows the chain as printed.

How the values were obtained:
[1] = target: T1, MnmE (Y169A, D175A and F176A) with additional S153A (Escherichia coli, UniProt P25522 1-454, S153A | Y169A | D175A | F176A); test: ITC; MnmE mutant in syringe, MnmG in cell
T1 sequence: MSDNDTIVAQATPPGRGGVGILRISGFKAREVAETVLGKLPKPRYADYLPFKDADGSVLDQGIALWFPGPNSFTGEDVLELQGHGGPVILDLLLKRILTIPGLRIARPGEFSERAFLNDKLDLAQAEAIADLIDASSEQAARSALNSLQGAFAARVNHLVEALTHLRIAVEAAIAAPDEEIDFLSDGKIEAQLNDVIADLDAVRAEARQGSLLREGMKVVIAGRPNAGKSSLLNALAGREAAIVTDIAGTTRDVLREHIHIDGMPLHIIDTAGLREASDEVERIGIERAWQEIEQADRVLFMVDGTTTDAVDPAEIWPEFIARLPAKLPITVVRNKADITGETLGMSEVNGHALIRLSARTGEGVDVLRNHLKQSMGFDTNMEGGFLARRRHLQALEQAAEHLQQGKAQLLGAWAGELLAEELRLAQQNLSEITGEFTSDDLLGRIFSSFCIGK

[2] = target: T2, MnmE (Y169A, D175A and F176A) (Escherichia coli, UniProt P25522 1-454, Y169A | D175A | F176A); test: ITC; MnmE mutant in syringe, MnmG in cell
T2 sequence: T1 sequence with A153S

[3] = target: T3, MnmE (T434A and D440A) (Escherichia coli, UniProt P25522 1-454, T434A | D440A); test: ITC; MnmE mutant in syringe, MnmG in cell
T3 sequence: T1 sequence with A153S, A169Y, A175D, A176F, T434A, D440A

[4] = target: T1, MnmE (Y169A, D175A and F176A) with …; test: ITC; MnmG in syringe, MnmE mutant in cell
[5] = target: T2, MnmE (Y169A, D175A and F176A); test: ITC; MnmG in syringe, MnmE mutant in cell
[6] = target: T3, MnmE (T434A and D440A); test: ITC; MnmG in syringe, MnmE mutant in cell
[7] = target: the molecule itself; test: SEC-MALS; E. coli MnmG alone, at all concentrations used (Supplementary Figure S2(D))
[8] = target: T4, MnmE from Escherichia coli, wild type (Escherichia coli, UniProt P25522 1-454); test: ITC; 278 K; 20 mM Hepes pH 7.5, 150 mM NaCl, 5 mM MgCl2, 2 mM BME, 1 mM FAD; 15 uM in the cell, 300 uM in the syringe; titrated in both directions; one site model; apparent; conditions: both partners purified
T4 construct: tRNA modification GTPase MnmE (formerly TrmE), Escherichia coli; open reading frame cloned in a pET20 vector; Homodimer of about 50-kDa subunits; Used nucleotide-free, with GDP-AlFx or with GppNHp depending on the experiment; also called TrmE; MnmE wt
T4 sequence (looked up): T1 sequence with A153S, A169Y, A175D, A176F

Kd [1]: 12.9 µM
Kd [2]: 12 µM
Kd [3]: 11.2 µM
Kd [4]: 29.9 µM
Kd [5]: 11.4 µM
Kd [6]: 9.4 µM
stoichiometry N [8]: 1
B1: MnmG from Escherichia coli, wild type (enzyme, UniProt P0A6U3 1-629, looked up)
chain: MFYPDPFDVIIIGGGHAGTEAAMAAARMGQQTLLLTHNIDTLGQMSCNPAIGGIGKGHLVKEVDALGGLMAKAIDQAGIQFRILNASKGPAVRATRAQADRVLYRQAVRTALENQPNLMIFQQAVEDLIVENDRVVGAVTQMGLKFRAKAVVLTVGTFLDGKIHIGLDNYSGGRAGDPPSIPLSRRLRELPLRVGRLKTGTPPRIDARTIDFSVLAQQHGDNPMPVFSFMGNASQHPQQVPCYITHTNEKTHDVIRSNLDRSPMYAGVIEGVGPRYCPSIEDKVMRFADRNQHQIFLEPEGLTSNEIYPNGISTSLPFDVQMQIVRSMQGMENAKIVRPGYAIEYDFFDPRDLKPTLESKFIQGLFFAGQINGTTGYEEAAAQGLLAGLNAARLSADKEGWAPARSQAYLGVLVDDLCTLGTKEPYRMFTSRAEYRLMLREDNADLRLTEIGRELGLVDDERWARFNEKLENIERERQRLKSTWVTPSAEAAAEVNAHLTAPLSREASGEDLLRRPEMTYEKLTTLTPFAPALTDEQAAEQVEIQVKYEGYIARQQDEIEKQLRNENTLLPATLDYRQVSGLSNEVIAKLNDHKPASIGQASRISGVTPAAISILLVWLKKQGMLRRSA
notes: tRNA uridine 5-carboxymethylaminomethyl modification enzyme MnmG (formerly GidA), Escherichia coli; open reading frame cloned in a pET14b vector; Homodimer of 70-kDa subunits; also called GidA; MnmG wt
stoichiometry N [7]: 2
